Source: patent US5985836A, “Alpha-1 proteinase inhibitor binding peptides” (Bayer Corporation, priority 1998, dated 1999)
Ends that are not written are not given here.

How the values were obtained:
A1PI [1] = molecular target: T1, A1PI (Homo sapiens, UniProt P01009); assay: A1PI binding on peptide-resin column, injection of 1 mg A1PI in equilibration buffer; conditions: for % of Total A1PI Eluted by Fraction (Based on Absorbance at 280 nm), 1M NaCl / % of Total A1PI Eluted by Fraction (Based on Absorbance at 280 nm), 2% Acetic Acid / % of Total A1PI Eluted by Fraction (Based on Absorbance at 280 nm), Flowthrough: 1 mg A1PI; for Percent AlPI Eluted by Fraction, 1M NaCl / Percent AlPI Eluted by Fraction, 2% Acetic Acid / Percent AlPI Eluted by Fraction, Flowthrough: 1 mg AlPI
T1 construct: Human plasma is currently the only approved source of therapeutic AlPI
How it was run: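 Peptides synthesized on A-Totda-Toyopearl chelate resin (0.1 mmole/g) packed in 0.4×5 cm columns; 1 mg A1PI injected in equilibration buffer at 4 °C or 20 °C, 865 or 523 μl/min. Flowthrough, 1M/3M NaCl washes and 2% acetic acid eluate quantified by A280 or immunonephelometry as percent of total eluted.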

AlPI = molecular target: T2, AlPI (Homo sapiens, UniProt P01009); assay: Effect of peptide density on AlPI capture from Eff. II+III, 4M GdnHCl final strip; format: binding; conditions: 4° C.; for Mass AlPI per Eluate Fraction, 1M NaCl / Mass AlPI per Eluate Fraction, Flowthrough / Mass AlPI per Eluate Fraction, 4M GdnHCl: * Below detection limit
T2 construct: Eff; II+III is a process intermediate in the Cohn plasma fractionation process; tissue Bayer Corporation (Clayton, N.C.); host or cells: plasma fraction: Cohn Effluent II+III
Description: The substitution density of the peptide VIFLVR (SEQ ID NO:37) on the Tosohaas resin was reduced by the varying the ratio of Fmoc-L-Ala/Boc-L-Ala following linkage of the Totda linker. A similar procedure was outlined previously (Buettner et al. 1997). The peptide was then synthesized onto these resins. A 1.0 ml aliquot of neat Eff. II+III was injected onto the columns, and the chromatography cycle was the same as used for other studies involving Eff. II+III. The one exception was the use of 4M guanidine hydrochloride (GdnHCl) in lieu of 2% acetic acid as the final strip.

A1PI [2] = molecular target: T1, A1PI; assay: Capture and elution of active A1PI with 2M urea buffer (elastase inhibition activity assay and immunonephelometry); format: binding; conditions: 4° C.
[3] = peptide density 6 μmol/g, 4° C.
[4] = peptide density 6 μmol/g, 20° C.
[5] = peptide density 17 μmol/g, 4° C.
[6] = peptide density 17 μmol/g, 20° C.
[7] = peptide density 25 μmol/g, 4° C.
[8] = peptide density 25 μmol/g, 20° C.
[9] = peptide density 39 μmol/g, 4° C.
[10] = peptide density 39 μmol/g, 20° C.
[11] = peptide density 54 μmol/g, 4° C.
[12] = peptide density 54 μmol/g, 20° C.
[13] = peptide density 58 μmol/g, 4° C.
[14] = peptide density 58 μmol/g, 20° C.
[15] = peptide density 99 μmol/g, 4° C.
[16] = peptide density 99 μmol/g, 20° C.
[17] = peptide density 135 μmol/g, 4° C.
[18] = peptide density 135 μmol/g, 20° C.
[19] = sequence truncations, 4° C., immunonephelometry
[20] = sequence truncations, 20° C., immunonephelometry

T2 sequence (P01009 25-418): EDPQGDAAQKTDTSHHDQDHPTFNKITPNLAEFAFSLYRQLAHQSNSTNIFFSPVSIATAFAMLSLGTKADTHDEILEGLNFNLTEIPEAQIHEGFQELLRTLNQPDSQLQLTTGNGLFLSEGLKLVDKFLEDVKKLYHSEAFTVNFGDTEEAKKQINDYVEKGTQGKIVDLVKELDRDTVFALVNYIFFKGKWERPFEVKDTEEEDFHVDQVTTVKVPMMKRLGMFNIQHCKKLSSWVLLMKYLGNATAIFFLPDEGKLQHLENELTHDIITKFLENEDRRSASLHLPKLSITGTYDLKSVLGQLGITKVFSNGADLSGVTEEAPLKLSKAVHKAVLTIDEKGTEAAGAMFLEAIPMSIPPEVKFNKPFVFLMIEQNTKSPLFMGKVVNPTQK
T1 sequence (P01009 25-418): as above

VIFLVR
% of Total A1PI Eluted by Fraction (Based on Absorbance at 280 nm), 1M NaCl (A1PI [1]; Trp position mutations, 4° C.): 3%
% of Total A1PI Eluted by Fraction (Based on Absorbance at 280 nm), 2% Acetic Acid (A1PI [1]; Trp position mutations, 4° C.): 97%
% of Total A1PI Eluted by Fraction (Based on Absorbance at 280 nm), Flowthrough (A1PI [1]; Trp position mutations, 4° C.): 0%
% of Total A1PI Eluted by Fraction (Based on Absorbance at 280 nm), 1M NaCl (A1PI [1]; Trp position mutations, 20° C.): 8%
% of Total A1PI Eluted by Fraction (Based on Absorbance at 280 nm), 2% Acetic Acid (A1PI [1]; Trp position mutations, 20° C.): 92%
% of Total A1PI Eluted by Fraction (Based on Absorbance at 280 nm), Flowthrough (A1PI [1]; Trp position mutations, 20° C.): 0%
% of Total A1PI Eluted by Fraction (Based on Absorbance at 280 nm), 1M NaCl (A1PI [1]; VIFLVR point mutations, 4° C.): 3%
% of Total A1PI Eluted by Fraction (Based on Absorbance at 280 nm), 2% Acetic Acid (A1PI [1]; VIFLVR point mutations, 4° C.): 97%
% of Total A1PI Eluted by Fraction (Based on Absorbance at 280 nm), Flowthrough (A1PI [1]; VIFLVR point mutations, 4° C.): 0%
% of Total A1PI Eluted by Fraction (Based on Absorbance at 280 nm), 1M NaCl (A1PI [1]; VIFLVR point mutations, 20° C.): 8%
% of Total A1PI Eluted by Fraction (Based on Absorbance at 280 nm), 2% Acetic Acid (A1PI [1]; VIFLVR point mutations, 20° C.): 92%
% of Total A1PI Eluted by Fraction (Based on Absorbance at 280 nm), Flowthrough (A1PI [1]; VIFLVR point mutations, 20° C.): 0%
Percent AlPI Eluted by Fraction, 1M NaCl (A1PI [1]; [3]): 21%
Percent AlPI Eluted by Fraction, 2% Acetic Acid (A1PI [1]; [3]): 0%
Percent AlPI Eluted by Fraction, Flowthrough (A1PI [1]; [3]): 87%
Percent AlPI Eluted by Fraction, 1M NaCl (A1PI [1]; [4]): 13%
Percent AlPI Eluted by Fraction, 2% Acetic Acid (A1PI [1]; [4]): 0%
Percent AlPI Eluted by Fraction, Flowthrough (A1PI [1]; [4]): 79%
Percent AlPI Eluted by Fraction, 1M NaCl (A1PI [1]; [5]): 10%
Percent AlPI Eluted by Fraction, 2% Acetic Acid (A1PI [1]; [5]): 2%
Percent AlPI Eluted by Fraction, Flowthrough (A1PI [1]; [5]): 80%
Percent AlPI Eluted by Fraction, 1M NaCl (A1PI [1]; [6]): 18%
Percent AlPI Eluted by Fraction, 2% Acetic Acid (A1PI [1]; [6]): 22%
Percent AlPI Eluted by Fraction, Flowthrough (A1PI [1]; [6]): 68%
Percent AlPI Eluted by Fraction, 1M NaCl (A1PI [1]; [7]): 1%
Percent AlPI Eluted by Fraction, 2% Acetic Acid (A1PI [1]; [7]): 43%
Percent AlPI Eluted by Fraction, Flowthrough (A1PI [1]; [7]): 57%
Percent AlPI Eluted by Fraction, 1M NaCl (A1PI [1]; [8]): 0%
Percent AlPI Eluted by Fraction, 2% Acetic Acid (A1PI [1]; [8]): 72%
Percent AlPI Eluted by Fraction, Flowthrough (A1PI [1]; [8]): 28%
Percent AlPI Eluted by Fraction, 1M NaCl (A1PI [1]; [9]): 4%
Percent AlPI Eluted by Fraction, 2% Acetic Acid (A1PI [1]; [9]): 96%
Percent AlPI Eluted by Fraction, Flowthrough (A1PI [1]; [9]): 0%
Percent AlPI Eluted by Fraction, 1M NaCl (A1PI [1]; [10]): 0%
Percent AlPI Eluted by Fraction, 2% Acetic Acid (A1PI [1]; [10]): 100%
Percent AlPI Eluted by Fraction, Flowthrough (A1PI [1]; [10]): 0%
Percent AlPI Eluted by Fraction, 1M NaCl (A1PI [1]; [11]): 0%
Percent AlPI Eluted by Fraction, 2% Acetic Acid (A1PI [1]; [11]): 100%
Percent AlPI Eluted by Fraction, Flowthrough (A1PI [1]; [11]): 0%
Percent AlPI Eluted by Fraction, 1M NaCl (A1PI [1]; [12]): 0%
Percent AlPI Eluted by Fraction, 2% Acetic Acid (A1PI [1]; [12]): 100%
Percent AlPI Eluted by Fraction, Flowthrough (A1PI [1]; [12]): 0%
Percent AlPI Eluted by Fraction, 1M NaCl (A1PI [1]; [13]): 4%
Percent AlPI Eluted by Fraction, 2% Acetic Acid (A1PI [1]; [13]): 96%
Percent AlPI Eluted by Fraction, Flowthrough (A1PI [1]; [13]): 0%
Percent AlPI Eluted by Fraction, 1M NaCl (A1PI [1]; [14]): 0%
Percent AlPI Eluted by Fraction, 2% Acetic Acid (A1PI [1]; [14]): 100%
Percent AlPI Eluted by Fraction, Flowthrough (A1PI [1]; [14]): 0%
Percent AlPI Eluted by Fraction, 1M NaCl (A1PI [1]; [15]): 0%
Percent AlPI Eluted by Fraction, 2% Acetic Acid (A1PI [1]; [15]): 100%
Percent AlPI Eluted by Fraction, Flowthrough (A1PI [1]; [15]): 0%
Percent AlPI Eluted by Fraction, 1M NaCl (A1PI [1]; [16]): 0%
Percent AlPI Eluted by Fraction, 2% Acetic Acid (A1PI [1]; [16]): 93%
Percent AlPI Eluted by Fraction, Flowthrough (A1PI [1]; [16]): 7%
Percent AlPI Eluted by Fraction, 1M NaCl (A1PI [1]; [17]): 0%
Percent AlPI Eluted by Fraction, 2% Acetic Acid (A1PI [1]; [17]): 100%
Percent AlPI Eluted by Fraction, Flowthrough (A1PI [1]; [17]): 0%
Percent AlPI Eluted by Fraction, 1M NaCl (A1PI [1]; [18]): 0%
Percent AlPI Eluted by Fraction, 2% Acetic Acid (A1PI [1]; [18]): 95%
Percent AlPI Eluted by Fraction, Flowthrough (A1PI [1]; [18]): 5%
Percent AlPI Eluted by Fraction, 1M NaCl (A1PI [1]; sequence order, 4° C.): 3%
Percent AlPI Eluted by Fraction, 2% Acetic Acid (A1PI [1]; sequence order, 4° C.): 97%
Percent AlPI Eluted by Fraction, Flowthrough (A1PI [1]; sequence order, 4° C.): 0%
Percent AlPI Eluted by Fraction, 1M NaCl (A1PI [1]; sequence order, 20° C.): 7%
Percent AlPI Eluted by Fraction, 2% Acetic Acid (A1PI [1]; sequence order, 20° C.): 93%
Percent AlPI Eluted by Fraction, Flowthrough (A1PI [1]; sequence order, 20° C.): 0%
Percent AlPI Eluted by Fraction, 1M NaCl (A1PI [1]; [19]): 3%
Percent AlPI Eluted by Fraction, 2% Acetic Acid (A1PI [1]; [19]): 97%
Percent AlPI Eluted by Fraction, Flowthrough (A1PI [1]; [19]): 0%
Percent AlPI Eluted by Fraction, 1M NaCl (A1PI [1]; [20]): 7%
Percent AlPI Eluted by Fraction, 2% Acetic Acid (A1PI [1]; [20]): 93%
Percent AlPI Eluted by Fraction, Flowthrough (A1PI [1]; [20]): 0%
Percent Eluted by Fraction, 1M NaCl (AlPI; peptide density 6 μmol/g): 12%
Percent Eluted by Fraction, 4M GdnHCl (AlPI; peptide density 6 μmol/g): 0%
Percent Eluted by Fraction, Flowthrough (AlPI; peptide density 6 μmol/g): 88%
Mass AlPI per Eluate Fraction, 1M NaCl (AlPI; peptide density 6 μmol/g): 0.09 mg
Mass AlPI per Eluate Fraction, Flowthrough (AlPI; peptide density 6 μmol/g): 0.69 mg
Percent Eluted by Fraction, 1M NaCl (AlPI; peptide density 17 μmol/g): 44%
Percent Eluted by Fraction, 4M GdnHCl (AlPI; peptide density 17 μmol/g): 7%
Percent Eluted by Fraction, Flowthrough (AlPI; peptide density 17 μmol/g): 49%
Mass AlPI per Eluate Fraction, 1M NaCl (AlPI; peptide density 17 μmol/g): 0.36 mg
Mass AlPI per Eluate Fraction, 4M GdnHCl (AlPI; peptide density 17 μmol/g): 0.05 mg
Mass AlPI per Eluate Fraction, Flowthrough (AlPI; peptide density 17 μmol/g): 0.39 mg
Percent Eluted by Fraction, 1M NaCl (AlPI; peptide density 54 μmol/g): 0%
Percent Eluted by Fraction, 4M GdnHCl (AlPI; peptide density 54 μmol/g): 74%
Percent Eluted by Fraction, Flowthrough (AlPI; peptide density 54 μmol/g): 26%
Mass AlPI per Eluate Fraction, 4M GdnHCl (AlPI; peptide density 54 μmol/g): 0.57 mg
Mass AlPI per Eluate Fraction, Flowthrough (AlPI; peptide density 54 μmol/g): 0.20 mg
Percent Eluted by Fraction, 1M NaCl (AlPI; peptide density 62 μmol/g): 0%
Percent Eluted by Fraction, 4M GdnHCl (AlPI; peptide density 62 μmol/g): 83%
Percent Eluted by Fraction, Flowthrough (AlPI; peptide density 62 μmol/g): 17%
Mass AlPI per Eluate Fraction, 4M GdnHCl (AlPI; peptide density 62 μmol/g): 0.70 mg
Mass AlPI per Eluate Fraction, Flowthrough (AlPI; peptide density 62 μmol/g): 0.14 mg
Percent Eluted by Fraction, 1M NaCl (AlPI; peptide density 70 μmol/g): 0%
Percent Eluted by Fraction, 4M GdnHCl (AlPI; peptide density 70 μmol/g): 72%
Percent Eluted by Fraction, Flowthrough (AlPI; peptide density 70 μmol/g): 28%
Mass AlPI per Eluate Fraction, 4M GdnHCl (AlPI; peptide density 70 μmol/g): 0.69 mg
Mass AlPI per Eluate Fraction, Flowthrough (AlPI; peptide density 70 μmol/g): 0.26 mg
Percent Eluted by Fraction, 1M NaCl (AlPI; peptide density 100 μmol/g): 0%
Percent Eluted by Fraction, 4M GdnHCl (AlPI; peptide density 100 μmol/g): 82%
Percent Eluted by Fraction, Flowthrough (AlPI; peptide density 100 μmol/g): 18%
Mass AlPI per Eluate Fraction, 4M GdnHCl (AlPI; peptide density 100 μmol/g): 0.57 mg
Mass AlPI per Eluate Fraction, Flowthrough (AlPI; peptide density 100 μmol/g): 0.13 mg
Mass A1PI in Urea Eluate (mg), Activity (A1PI [2]; 1 mg A1PI, eluted with 2M urea, pH 6, elastase inhibition activity assay): 0.36 mg
Mass A1PI in Urea Eluate (mg), Nephelometry (A1PI [2]; 1 mg A1PI, eluted with 2M urea, pH 6, immunonephelometry): 0.45 mg
Specific Activity (A1PI [2]; mass of A1PI by activity assay relative to immunonephelometry, urea eluate): 0.81 mg/mg
